Positions count from the first letter of the chain named.
B1: AF003232 (other)
heavy 1: APASSSTKKTQLQLEHLLLDLQMILNGINNYKNPKLTRMLTAKFAMPKKATELKHLQCLEEELKPLEEVLNGAQSKNFHLRPRDLISNINVIVLELKGSETTFMCEYADETATIVEFLNRWITFAQSIISTLTGGGGSGGGGSGGGGSGGGGSQVQLVQSGAEVKKPGASVKVSCKASGDTFTRHYVHWVRQAPGQGLEWMGIINPSGGYASYAQKFQGRVTMTRDTSTSTVYMELSSLRSEDTAVYYCAAGLFIWGQGTLVTVSSAKTTAPSVYPLAPVCGDTTGSSVTLGCLVKGYFPEPVTLTWNSGSLSSGVHTFPAVLQSDLYTLSSSVTVTSSTWPSQSITCNVAHPASSTKVDKKIEPRGPTIKPCPPCKCPAPNAAGGPSVFIFPPKIKDVLMISLSPIVTCVVVDVSEDDPDVQISWFVNNVEVHTAQTQTHREDYNSTLRVVSALPIQHQDWMSGKEFKCKVNNKDLGAPIERTISKPKGSVRAPQVYVLPPPEEEMTKKQVTLTCMVTDFMPEDIYVEWTNNGKTELNYKNTEPVLDSDGSYFMYSDLRVEKKNWVERNSYSCSVVHEGLHNHHTTESFSRTPGK
heavy 2: QVQLVQSGAEVKKPGASVKVSCKASGDTFTRHYVHWVRQAPGQGLEWMGIINPSGGYASYAQKFQGRVTMTRDTSTSTVYMELSSLRSEDTAVYYCAAGLFIWGQGTLVTVSSAKTTAPSVYPLAPVCGDTTGSSVTLGCLVKGYFPEPVTLTWNSGSLSSGVHTFPAVLQSDLYTLSSSVTVTSSTWPSQSITCNVAHPASSTKVDKKIEPRGPTIKPCPPCKCPAPNAAGGPSVFIFPPKIKDVLMISLSPIVTCVVVDVSEDDPDVQISWFVNNVEVHTAQTQTHREDYNSTLRVVSALPIQHQDWMSGKEFKCKVNNKDLGAPIERTISKPKGSVRAPQVYVLPPPEKEMTKKQVSLTCLVKDFMPEDIYVEWTNNGKTELNYKNTEPVLKSDGSYFMYSKLTVEKKNWVERNSYSCSVVHEGLHNHHTTKSFSRTPGGGGSGGGSHHHHHH
light: DIQMTQSPSSLSASVGDRVTITCRASQSIGRWLAWYQQKPGKAPKLLIYSASNLETGVPSRFSGSGSGTDFTLTISSLQPEDFATYYCQQYESFPVTFGPGTKVDIKRADAAPTVSIFPPSSEQLTSGGASVVCFLNNFYPKDINVKWKIDGSERQNGVLNSWTDQDSKDSTYSMSSTLTLTKDEYERHNSYTCEATHKTSTSPIVKSFNRNEC
notes: also called AF3232
B2: AF003955 (other)
heavy 1: B1 heavy 1 with D180H, H185Y, V187M, S212T, A251S
heavy 2: B1 heavy 2 with D27H, H32Y, V34M, S59T, A98S
light: B1 light with G30N, R31S, S50A, A51T, N53T, T56S, E92Y, S93R, P100Q, D105E
notes: also called AF3955
B3: AF003740 (other)
heavy 1: B1 heavy 1 with H185Y
heavy 2: QVQLVQSGAEVKKPGASVKVSCKASGDTFTRYYVHWVRQAPGQGLEWMGIINPSGGYASYAQKFQGRVTMTRDTSTSTVYMELSSLRSEDTAVYYCAAGLFIWGQGTLVTVSSAKTTAPSVYPLAPVCGDTTGSSVTLGCLVKGYFPEPVTLTWNSGSLSSGVHTFPAVLQSDLYTLSSSVTVTSSTWPSQSITCNVAHPASSTKVDKKIEPRGPTIKPCPPCKCPAPNAAGGPSVFIFPPKIKDVLMISLSPIVTCVVVDVSEDDPDVQISWFVNNVEVHTAQTQTHREDYNSTLRVVSALPIQHQDWMSGKEFKCKVNNKDLGAPIERTISKPKGSVRAPQVYVLPPPEKEMTKKQVSLTCLVKDFMPEDIYVEWTNNGKTELNYKNTEPVLKSDGSYFMYSKLTVEKKNWVERNSYSCSVVHEGLHNHHTTKSFSRTPGK
light: B1 light with E92N
notes: also called AF3740
B4: AF003951 (other)
heavy 1: APASSSTKKTQLQLEHLLLDLQMILNGINNYKNPKLTRMLTAKFAMPKKATELKHLQCLEEELKPLEEVLNGAQSKNFHLRPRDLISNINVIVLELKGSETTFMCEYADETATIVEFLNRWITFAQSIISTLTGGGGSGGGGSGGGGSGGGGSQVQLVQSGAEVKKPGASVKVSCKASGYTFTDYYMHWVRQAPGQGLEWMGIINPRAGYTSYALKFQGRVTMTRDTSTSTVYMELSSLRSEDTAVYYCTSGWDVWGQGTLVTVSSAKTTAPSVYPLAPVCGDTTGSSVTLGCLVKGYFPEPVTLTWNSGSLSSGVHTFPAVLQSDLYTLSSSVTVTSSTWPSQSITCNVAHPASSTKVDKKIEPRGPTIKPCPPCKCPAPNAAGGPSVFIFPPKIKDVLMISLSPIVTCVVVDVSEDDPDVQISWFVNNVEVHTAQTQTHREDYNSTLRVVSALPIQHQDWMSGKEFKCKVNNKDLGAPIERTISKPKGSVRAPQVYVLPPPEEEMTKKQVTLTCMVTDFMPEDIYVEWTNNGKTELNYKNTEPVLDSDGSYFMYSDLRVEKKNWVERNSYSCSVVHEGLHNHHTTESFSRTPGK
heavy 2: QVQLVQSGAEVKKPGASVKVSCKASGYTFTDYYMHWVRQAPGQGLEWMGIINPRAGYTSYALKFQGRVTMTRDTSTSTVYMELSSLRSEDTAVYYCTSGWDVWGQGTLVTVSSAKTTAPSVYPLAPVCGDTTGSSVTLGCLVKGYFPEPVTLTWNSGSLSSGVHTFPAVLQSDLYTLSSSVTVTSSTWPSQSITCNVAHPASSTKVDKKIEPRGPTIKPCPPCKCPAPNAAGGPSVFIFPPKIKDVLMISLSPIVTCVVVDVSEDDPDVQISWFVNNVEVHTAQTQTHREDYNSTLRVVSALPIQHQDWMSGKEFKCKVNNKDLGAPIERTISKPKGSVRAPQVYVLPPPEKEMTKKQVSLTCLVKDFMPEDIYVEWTNNGKTELNYKNTEPVLKSDGSYFMYSKLTVEKKNWVERNSYSCSVVHEGLHNHHTTKSFSRTPGGGGSGGGSHHHHHH
light: B1 light with G30S, R31T, S50A, N53S, E55D, T56S, Y91S, E92Y, P100Q, D105E
notes: also called AF3951
B5: AF003945 (other)
heavy 1: B1 heavy 1 with H185Y
heavy 2: B1 heavy 2 with H32Y
light: B1 light with R31S, E92N
notes: also called AF3945
B6: AF003952 (other)
heavy 1: B4 heavy 1 with D184R
heavy 2: B4 heavy 2 with D31R
light: B1 light with G30S, R31T, S50A, N53S, E55D, T56S, Y91S, E92Y, P100Q, D105E
notes: also called AF3952
B7: AF003956 (other)
heavy 1: B4 heavy 1
heavy 2: B4 heavy 2
light: DIQMTQSPSSLSASVGDRVTITCRASQSISTWLAWYQQKPGKAPKLLIYAASSLDSGVPSRFSGSGSGTDFTLTISSLQPEDFATYYCQQSYRFPVTFGQGTKVEIKRADAAPTVSIFPPSSEQLTSGGASVVCFLNNFYPKDINVKWKIDGSERQNGVLNSWTDQDSKDSTYSMSSTLTLTKDEYERHNSYTCEATHKTSTSPIVKSFNRNEC
notes: also called AF3956
B8: AF003747 (other)
heavy 1: B1 heavy 1 with H185Y
heavy 2: B3 heavy 2
light: B1 light with W32Y, E92N
notes: also called AF3747
B9: AF003953 (other)
heavy 1: B4 heavy 1 with D184T
heavy 2: B4 heavy 2 with D31T
light: B7 light with R93S
notes: also called AF3953
B10: AF003753 (other)
heavy 1: B1 heavy 1 with H185Y
heavy 2: B3 heavy 2
light: B1 light
notes: also called AF3753
B11: AF003749 (other)
heavy 1: B1 heavy 1 with H185Y
heavy 2: B3 heavy 2
light: B1 light with W32Y, S50Y, E92N
notes: also called AF3749

biological target: T1, biotinylated IL-2 receptor beta gamma heterodimer Fc (IL-2RBG; Acro ILG-H5254) (UniProt P14784 27-239; P31785 23-262, biotinylated); experiment: ELISA, captured complex, biotin-IL-2RBG 10 nM, PD-1 Fc titrated
T1 construct: bought heterodimer
T1 sequence (looked up) 1: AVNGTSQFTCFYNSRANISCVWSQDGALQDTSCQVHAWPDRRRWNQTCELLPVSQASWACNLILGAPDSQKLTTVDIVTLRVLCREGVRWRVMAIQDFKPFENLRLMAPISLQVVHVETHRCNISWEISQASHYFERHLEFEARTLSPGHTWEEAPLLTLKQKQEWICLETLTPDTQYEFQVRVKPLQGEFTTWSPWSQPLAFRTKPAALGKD
T1 sequence (looked up) 2: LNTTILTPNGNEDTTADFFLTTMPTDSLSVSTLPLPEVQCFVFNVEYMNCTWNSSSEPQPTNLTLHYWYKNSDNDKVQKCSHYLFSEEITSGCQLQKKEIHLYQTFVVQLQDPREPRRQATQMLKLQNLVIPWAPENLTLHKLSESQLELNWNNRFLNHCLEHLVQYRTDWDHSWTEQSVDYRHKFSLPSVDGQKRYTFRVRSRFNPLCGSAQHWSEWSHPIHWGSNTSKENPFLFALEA
Method: The DBA-cytokine complexes and control antibody-cytokine complexes were produced in two formats: (1) “Symmetric” immunocytokine (shown in FIG. 2E); or (2) “Asymmetric” immunocytokine (shown in FIG. 2B) by expression in mammalian cells and purified using standard protocols. […] To perform the assay, 384-well ELISA plates were coated with anti-Fc antibody at 1 micrograms/ml in 100 mM bicarbonate solution pH 9.0 overnight at 4° C. and washed twice with SUPERBLOCK™. Antibody-cytokine complexes were then added to each well at a constant concentration of 6 nM and allowed to incubate for 1 hour and washed three times in PBS plus 0.05% TWEEN® 20 (PBST). Titrated concentrations of PD-1 Fc or an IgG1 control Fc were added and allowed to incubate for 15 minutes before the addition of a constant amount of biotinylated IL-2RBG at 10 nM. The plates were incubated for an additional 30 minutes, washed and biotinylated IL-2RBG detection was performed using streptavidin-HRP and standard ELISA protocols.

Binding result, binds:
B1
B2
B3
B4
B5
B6
B7
B8
B9
B10
B11

Source: patent US20240366776A1 (Hoffmann-La Roche, published 2024)
